Source: patent publication US20090162378A1

B1: HCMV-20 scFv antibody, purified His-tag fused polypeptide expressed in E. coli (scFv)
scFv: MAQVQLQESGPGLVKPSGTLSLTCAVSGGSISSSNWWSWVRQPPGKGLEWIGEIYHSGSTNYNPSLKSRVTISVDKSKNQFSLKLSSVTAADTAVYYCAREGSYEAFDYWGQGTLVTVSSGGGGSGGGGSGGGGSNFMLTQPHSVSESPGKTVTISCTRSSGSIASNYVQWYQQRPGSAPSTVIYDDNQRPSGVPDRFSGSIDSSSNSASLTISGLKTEDEADYYCQSYDSSNHGVVFGGGTKLTVLGAA
B2: HCMV-20 scFv antibody displayed on phage (positive phage clone from the mixed scFv phage display library) (scFv)
scFv: MAQVQLQESGPGLVKPSGTLSLTCAVSGGSISSSNWWSWVRQPPGKGLEWIGEIYHSGSTNYNPSLKSRVTISVDKSKNQFSLKLSSVTAADTAVYYCAREGSYEAFDYWGQGTLVTVSSGGGGSGGGGSGGGGSNFMLTQPHSVSESPGKTVTISCTRSSGSIASNYVQWYQQRPGSAPSTVIYDDNQRPSGVPDRFSGSIDSSSNSASLTISGLKTEDEADYYCQSYDSSNHGVVFGGGTKLTVLGAA

How the values were obtained:
[1] = biological target: HCMV RC256 particles (human cytomegalovirus strain RC256) (human cytomegalovirus); test: cell-based or functional assay
[2] = biological target: HCMV RC256 particles (human cytomegalovirus strain RC256) (human cytomegalovirus); test: phage ELISA; plate coated with HCMV RC256 against a control plate coated with lysate of E. coli transfected with pET-22b; detection with HRP anti-M13

Row | Binder | plaque number, Test 1, 1.0 uM HCMV-20 (virus only: 152) [1] [plaques] | plaque number, Test 1, 2.0 uM HCMV-20 (virus only: 152) [1] [plaques] | plaque number, Test 1, 4.1 uM HCMV-20 (virus only: 152) [1] [plaques] | plaque number, Test 1, 8.1 uM HCMV-20 (virus only: 152) [1] [plaques] | plaque number, Test 1, 16.3 uM HCMV-20 (virus only: 152) [1] [plaques] | plaque number, Test 2, 1.0 uM HCMV-20 (virus only: 139) [1] [plaques] | plaque number, Test 2, 2.0 uM HCMV-20 (virus only: 139) [1] [plaques] | plaque number, Test 2, 4.1 uM HCMV-20 (virus only: 139) [1] [plaques] | plaque number, Test 2, 8.1 uM HCMV-20 (virus only: 139) [1] [plaques] | plaque number, Test 2, 16.3 uM HCMV-20 (virus only: 139) [1] [plaques] | HCMV/control (ELISA signal ratio) [2]
1 | B1 | 92 | 36 | 23 | 20 | 15 | 93 | 42 | 17 | 16 | 16 | –
2 | B2 | – | – | – | – | – | – | – | – | – | – | > 8
